From PMC4046112, “eIF2B is a decameric guanine nucleotide exchange factor with a γ2ε2 tetrameric core” (Nature Communications, 2014) come the findings set out here.

B2: eIF2Bε (ε-subunit of yeast eIF2B, untagged) (natural protein, S. cerevisiae, UniProt P32501 1-712, looked up)
chain: MAGKKGQKKSGLGNHGKNSDMDVEDRLQAVVLTDSYETRFMPLTAVKPRCLLPLANVPLIEYTLEFLAKAGVHEVFLICSSHANQINDYIENSKWNLPWSPFKITTIMSPEARCTGDVMRDLDNRGIITGDFILVSGDVLTNIDFSKMLEFHKKMHLQDKDHISTMCLSKASTYPKTRTIEPAAFVLDKSTSRCIYYQDLPLPSSREKTSIQIDPELLDNVDEFVIRNDLIDCRIDICTSHVPLIFQENFDYQSLRTDFVKGVISSDILGKHIYAYLTDEYAVRVESWQTYDTISQDFLGRWCYPLVLDSNIQDDQTYSYESRHIYKEKDVVLAQSCKIGKCTAIGSGTKIGEGTKIENSVIGRNCQIGENIRIKNSFIWDDCIIGNNSIIDHSLIASNATLGSNVRLNDGCIIGFNVKIDDNMDLDRNTKISASPLKNAGSRMYDNESNEQFDQDLDDQTLAVSIVGDKGVGYIYESEVSDDEDSSTEACKEINTLSNQLDELYLSDDSISSATKKTKKRRTMSVNSIYTDREEIDSEFEDEDFEKEGIATVERAMENNHDLDTALLELNTLRMSMNVTYHEVRIATITALLRRVYHFIATQTLGPKDAVVKVFNQWGLLFKRQAFDEEEYIDLMNIIMEKIVEQSFDKPDLILFSALVSLYDNDIIEEDVIYKWWDNVSTDPRYDEVKKLTVKWVEWLQNADEESSSEEE
notes: eIF2B epsilon subunit (GCD6), S. cerevisiae; Subunit of the purified eIF2B complexes, written alone for the subunit pairs; also called eIF2B ε-subunit; ε/GCD6
B5: eIF2Bδ (δ-subunit of yeast eIF2B) (natural protein, S. cerevisiae, UniProt P12754 1-651, looked up)
chain: MSESEAKSRSATPPSKAKQATPTTTAAANGEKKLTNKELKELKKQEKAAKRAAMKQANGISIEQQQQQAQMKKEKKQLQREQQQKREQKQKNANKKKQNERNVKKSTLFGHLETTEERRATILALTSAVSSPKTSRITAAGLMVPVVASALSGSNVLTASSLMPVGPNASSTVSASAPASTTTTLPASSAALSAGTSSASTNTPTAIQQEIASSNASDVAKTLASISLEAGEFNVIPGISSVIPTVLEQSFDNSSLISSVKELLLNKDLIHPSILLLTSHLAHYKIVGSIPRCIAMLEVFQIVIKDYQTPKGTTLSRNLTSYLSHQIDLLKKARPLSVTMGNAIRWLKQEISLIDPSTPDKAAKKDLCEKIGQFAKEKIELADQLIIDNASTQIEESTTIVTYGSSKVLTELLLHNAISLKKNIKVIVVDSRPLFEGRKMAETLRNAGVNVMYALITSLDTIFNMDVDYVFLGAHSILSNGFLYSRAGTAMLAMSAKRRNIPVLVCCESLKFSQRVQLDSVTFNELADPNDLVNIDYENPVERRGNKGALLNQFIKERKFEKKKLAMENKPKGNKIGGKKGSEGESKDASNEEDSNSKNILDGWQELPSLNIVNILYDLTPPEYIKKVITEFGALPPSSVPVILREYKGSA
notes: eIF2B delta subunit (GCD2), S. cerevisiae; Subunit of the purified eIF2B complexes, written alone for the subunit pairs; also called eIF2B δ-subunit; δ/Gcd2

For test [1], the target named is yeast FLAG-tagged eIF2B complex (five subunits α–ε; decamer) (S. cerevisiae) (UniProt P14741). Nature of the test: native MS; FLAG-purified five-subunit eIF2B in 500 mM ammonium acetate; high collision energy for dissociation; decamer = two copies of each of five subunits.
The target is the same in test [2]. Description: native MS; eIF2-eIF2B preparations (purified at low ionic strength, or formed with phosphorylated eIF2 on anti-FLAG resin) exchanged into 500 mM ammonium acetate.
For test [3], the target named is T1, eIF2Bγ, FLAG-tagged (γ-subunit of yeast eIF2B) (S. cerevisiae, UniProt P09032 1-578).
T1 construct: eIF2B gamma subunit (GCD1), S. cerevisiae; Bait of all eIF2B complex purifications; also called GCD1-FLAG2-His6; source: S. cerevisiae strains overexpressing eIF2B subunits, purified (anti-FLAG resin, FLAG peptide elution); not shown: FLAG2, C-terminal, kept
T1 sequence (looked up): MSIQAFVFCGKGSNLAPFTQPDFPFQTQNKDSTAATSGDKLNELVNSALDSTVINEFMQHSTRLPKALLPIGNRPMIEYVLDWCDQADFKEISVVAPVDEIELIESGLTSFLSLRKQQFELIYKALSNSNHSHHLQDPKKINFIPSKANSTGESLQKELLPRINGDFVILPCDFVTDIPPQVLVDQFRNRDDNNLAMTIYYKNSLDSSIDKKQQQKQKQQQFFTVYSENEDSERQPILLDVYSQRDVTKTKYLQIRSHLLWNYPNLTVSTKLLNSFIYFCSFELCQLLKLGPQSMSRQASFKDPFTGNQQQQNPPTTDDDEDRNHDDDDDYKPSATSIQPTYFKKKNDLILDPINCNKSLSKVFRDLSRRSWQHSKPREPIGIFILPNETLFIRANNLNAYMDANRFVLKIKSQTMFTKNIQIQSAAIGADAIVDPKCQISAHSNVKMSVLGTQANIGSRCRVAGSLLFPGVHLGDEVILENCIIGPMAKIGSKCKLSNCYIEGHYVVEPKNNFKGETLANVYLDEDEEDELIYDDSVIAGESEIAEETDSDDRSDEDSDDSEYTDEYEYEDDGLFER
Description: label-free quantitative proteomics (iBAQ) of the purified complex; eIF2-eIF2B complex purified after phosphorylation of eIF2, trypsin digest, nanoLC-MS/MS, iBAQ intensities compared; eIF2B subunits relative to FLAG-tagged γ (set to 1), eIF2 subunits relative to α. The settings on record: both partners purified.

Test [4] has as its target eIF2α phosphorylated at Ser51 (subunit of phosphorylated eIF2) (S. cerevisiae) (UniProt P20459). The test is described as above.
In test [5] the target is T1, eIF2Bγ, FLAG-tagged (γ-subunit of yeast …). Description: cross-linking; BS3-d0/d4 (1:1) added to purified complexes (eIF2:eIF2B, four-subunit eIF2B, eIF2Bγε core), 30 min at 26 °C, trypsin digest, nanoLC-MS/MS, MassMatrix search; the text does not tell which cross-link came from which complex. The settings on record: both partners purified.
Test [6] has as its target B5. Described as above. As to conditions: both partners purified.
The target in test [7] is B2. The test is described as above. The settings on record: both partners purified.

One may read the stoichiometry N as a count of units in the complex or per binding partner. On to “yeast FLAG-tagged eIF2B complex (five subunits α–ε; decamer), P14741 1-305; P32502 1-381; P09032 1-578; P12754 1-651; P32501 1-712”, for which the stoichiometry N in test [1] and in test [2] was 10 in each case.

B1: eIF2Bα (α-subunit of yeast eIF2B) (natural protein, S. cerevisiae, UniProt P14741 1-305, looked up)
chain: MSEFNITETYLRFLEEDTEMTMPIAAIEALVTLLRIKTPETAAEMINTIKSSTEELIKSIPNSVSLRAGCDIFMRFVLRNLHLYGDWENCKQHLIENGQLFVSRAKKSRNKIAEIGVDFIADDDIILVHGYSRAVFSLLNHAANKFIRFRCVVTESRPSKQGNQLYTLLEQKGIPVTLIVDSAVGAVIDKVDKVFVGAEGVAESGGIINLVGTYSVGVLAHNARKPFYVVTESHKFVRMFPLSSDDLPMAGPPLDFTRRTDDLEDALRGPTIDYTAQEYITALITDLGVLTPSAVSEELIKMWYD
notes: eIF2B alpha subunit (GCN3), S. cerevisiae; Subunit of the purified eIF2B complex, written alone for the subunit pairs; also called eIF2B α-subunit; GCN3
Consider B1, for which, in test [3], the “stoichiometry N” value came out at 1.12.
On to B2, for which the “stoichiometry N” value in test [3] is 0.76.

B3: eIF2γ, His-tagged (γ-subunit of yeast eIF2) (natural protein, S. cerevisiae, UniProt P32481 1-527, looked up)
chain: MSDLQDQEPSIIINGNLEPVGEPDIVEETEVVAQETQETQDADKPKKKVAFTGLEEDGETEEEKRKREFEEGGGLPEQPLNPDFSKLNPLSAEIINRQATINIGTIGHVAHGKSTVVRAISGVQTVRFKDELERNITIKLGYANAKIYKCQEPTCPEPDCYRSFKSDKEISPKCQRPGCPGRYKLVRHVSFVDCPGHDILMSTMLSGAAVMDAALLLIAGNESCPQPQTSEHLAAIEIMKLKHVIILQNKVDLMREESALEHQKSILKFIRGTIADGAPIVPISAQLKYNIDAVNEFIVKTIPVPPRDFMISPRLIVIRSFDVNKPGAEIEDLKGGVAGGSILNGVFKLGDEIEIRPGIVTKDDKGKIQCKPIFSNIVSLFAEQNDLKFAVPGGLIGVGTKVDPTLCRADRLVGQVVGAKGHLPNIYTDIEINYFLLRRLLGVKTDGQKQAKVRKLEPNEVLMVNIGSTATGARVVAVKADMARLQLTSPACTEINEKIALSRRIEKHWRLIGWATIKKGTTLEPIA
notes: eIF2 gamma subunit (GCD11), S. cerevisiae; also called GCD11-His6; source: S. cerevisiae strain GP3511 co-overexpressing all three eIF2 subunits, purified (Ni-chelate, heparin-Sepharose); not shown: His6, C-terminal, kept
B3 came in with a stoichiometry N in test [4] of 1.67. The binding result in test [5] and in test [6] was “binds” each time.

B4: eIF2Bβ (β-subunit of yeast eIF2B) (natural protein, S. cerevisiae, UniProt P32502 1-381, looked up)
chain: MSSQAFTSVHPNAATSDVNVTIDTFVAKLKRRQVQGSYAIALETLQLLMRFISAARWNHVNDLIEQIRDLGNSLEKAHPTAFSCGNVIRRILAVLRDEVEEDTMSTTVTSTSVAEPLISSMFNLLQKPEQPHQNRKNSSGSSSMKTKTDYRQVAIQGIKDLIDEIKNIDEGIQQIAIDLIHDHEILLTPTPDSKTVLKFLITARERSNRTFTVLVTEGFPNNTKNAHEFAKKLAQHNIETLVVPDSAVFALMSRVGKVIIGTKAVFVNGGTISSNSGVSSVCECAREFRTPVFAVAGLYKLSPLYPFDVEKFVEFGGSQRILPRMDPRKRLDTVNQITDYVPPENIDIYITNVGGFNPSFIYRIAWDNYKQIDVHLDKNKA
notes: eIF2B beta subunit (GCD7), S. cerevisiae; Subunit of the purified eIF2B complexes, written alone for the subunit pairs; also called eIF2B β-subunit; β/Gcd7
For the molecule B4, in test [3], the “stoichiometry N” value amounted to 1.4. Also, the binding result in test [6] and in test [7] was “binds” throughout.
Turning to B5, in test [3], the “stoichiometry N” value was found to be 0.95. For the same molecule, in test [7], the binding result was “binds”.
